What was measured:
recombinant soluble CD4 = recombinant soluble CD4 (UniProt P01730); test: SPR
human mAb 4E10 (human) = test: SPR
Sequence of human mAb 4E10 (human) (light, as listed by the source, chain 2 of 2, other chains not shown): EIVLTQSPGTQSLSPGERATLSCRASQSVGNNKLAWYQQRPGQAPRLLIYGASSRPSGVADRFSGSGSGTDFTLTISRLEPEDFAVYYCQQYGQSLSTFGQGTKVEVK

“CON-S gp140CFI Env, natively deglycosylated with PNGase F 500 U per µg” gave a Kd (recombinant soluble CD4) of 9.4 nM and a fold enhancement of Kd against WT glycosylated CON-S gp140 (human mAb 4E10 (human)) of 7 fold.

“HIV-1 JRFL gp140CF Env, WT glycosylated (domain or fragment)” was tested, and the Kd (recombinant soluble CD4) was 5.7 nM.

“HIV-1 JRFL gp140CF Env, natively deglycosylated with PNGase F 500 U per µg (domain or fragment)” showed a Kd (recombinant soluble CD4) of 35.3 nM.

Substance “group M consensus gp140 Env, CON-S gp140CFI, WT glycosylated” has a Kd (recombinant soluble CD4) of 7.4 nM.

Reference: publication PMC3164629
